Measurements published in paper PMC3979375 (2014).

What was measured:
[1] = molecular target: T1, GST-SH3, fusion protein of GST and the SH3 domain of SAP102 (Rattus norvegicus (Rat), UniProt Q62936); test: GST pulldown / amylose pulldown
T1 chain: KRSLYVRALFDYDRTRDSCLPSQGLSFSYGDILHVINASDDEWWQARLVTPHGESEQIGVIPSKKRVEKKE

[2] = molecular target: T2, GST-SH3-GUK, fusion protein of GST and the combined SH3-GUK domain of SAP102 (Rattus norvegicus (Rat), UniProt Q62936); test: GST pulldown / amylose pulldown
T2 chain: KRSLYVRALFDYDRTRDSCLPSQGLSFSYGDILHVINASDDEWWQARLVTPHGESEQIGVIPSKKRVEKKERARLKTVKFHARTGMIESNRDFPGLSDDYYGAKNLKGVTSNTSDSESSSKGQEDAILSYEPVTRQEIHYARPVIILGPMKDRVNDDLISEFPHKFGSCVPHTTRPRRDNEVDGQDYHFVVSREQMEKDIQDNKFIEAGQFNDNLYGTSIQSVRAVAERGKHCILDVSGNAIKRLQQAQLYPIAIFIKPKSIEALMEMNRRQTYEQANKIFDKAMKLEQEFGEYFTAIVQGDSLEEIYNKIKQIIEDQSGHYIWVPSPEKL

[3] = molecular target: T3, GST-GUK, fusion protein of GST and the GUK domain of SAP102 (Rattus norvegicus (Rat), UniProt Q62936); test: GST pulldown
T3 chain: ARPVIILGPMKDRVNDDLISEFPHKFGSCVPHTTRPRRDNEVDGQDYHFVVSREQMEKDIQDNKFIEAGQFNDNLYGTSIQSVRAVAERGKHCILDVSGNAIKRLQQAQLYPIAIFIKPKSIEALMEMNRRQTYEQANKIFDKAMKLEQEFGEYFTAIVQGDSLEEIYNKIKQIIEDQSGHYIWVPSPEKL

Measured: binding result

B1: MBP-A2A-CT, fusion protein comprising maltose-binding protein and the carboxyl terminus of the A2A receptor (protein)
chain: RIREFRQTFRKIIRSHVLRQQEPFKAAGTSARVLAAHGSDGEQVSLRLNGHPPGVWANGSAPHPERRPNGYALGLVSGGSAQESQGNTGLPDVELLSHELKGVCPEPPGLDDPLAQDGAGVS
binds: all assays above
